Source: publication PMC10397247
One block for each binder: values may come before it.

Columns and labels:
[1] = target: T1, O9-bA; assay: two-hybrid library CCNG1; settings: mean of both orientations;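 note: natural log of median RNA to DNA barcode read ratio; higher means stronger binding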
T1 chain: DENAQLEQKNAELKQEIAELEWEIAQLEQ

[2] = target: T2, 4H3605-AA; assay: two-hybrid library CCmax;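 note: natural log of median RNA to DNA barcode read ratio; higher means stronger binding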
T2 chain: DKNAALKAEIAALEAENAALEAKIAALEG

[3] = target: T3, 4H3625-AA; assay: two-hybrid library CCmax; settings: mean of both orientations;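 note: natural log of median RNA to DNA barcode read ratio; higher means stronger binding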
T3 chain: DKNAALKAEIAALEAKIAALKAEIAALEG

[4] = target: T4, 4H3664-AA; assay: two-hybrid library CCmax; settings: mean of both orientations;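 note: natural log of median RNA to DNA barcode read ratio; higher means stronger binding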
T4 chain: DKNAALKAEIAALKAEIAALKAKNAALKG

[5] = target: T5, 4H369-AA; assay: two-hybrid library CCmax; settings: mean of both orientations;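 note: natural log of median RNA to DNA barcode read ratio; higher means stronger binding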
T5 chain: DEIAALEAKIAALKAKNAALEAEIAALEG

[6] = target: T6, 4H3922-AA; assay: two-hybrid library CCmax; settings: mean of both orientations;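 note: natural log of median RNA to DNA barcode read ratio; higher means stronger binding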
T6 chain: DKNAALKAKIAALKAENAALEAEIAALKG

[7] = target: T7, 4H4033-AA; assay: two-hybrid library CCmax; settings: mean of both orientations
T7 chain: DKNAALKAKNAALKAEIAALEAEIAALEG

[8] = target: T8, 4H481-AA; assay: two-hybrid library CCmax; settings: mean of both orientations
T8 chain: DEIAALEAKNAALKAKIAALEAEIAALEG

[9] = target: T9, 4H55-AA; assay: two-hybrid library CCmax
T9 chain: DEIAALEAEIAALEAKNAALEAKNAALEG

[10] = target: T10, 4H662-AA; assay: two-hybrid library CCmax; settings: mean of both orientations
T10 chain: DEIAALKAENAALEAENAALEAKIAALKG

[11] = target: T11, 4H2620-AA; assay: two-hybrid library CCmax
T11 chain: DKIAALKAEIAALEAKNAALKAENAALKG

[12] = target: T12, 4H2648-AA; assay: two-hybrid library CCmax; settings: mean of both orientations
T12 chain: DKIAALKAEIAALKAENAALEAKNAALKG

[13] = target: T13, 4H2907-AA; assay: two-hybrid library CCmax; settings: mean of both orientations
T13 chain: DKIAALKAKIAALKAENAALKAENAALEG

[14] = target: T14, 4H3056-AA; assay: two-hybrid library CCmax; settings: mean of both orientations
T14 chain: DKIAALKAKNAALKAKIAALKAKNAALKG

[15] = target: T15, 4H3133-AA; assay: two-hybrid library CCmax; settings: mean of both orientations
T15 chain: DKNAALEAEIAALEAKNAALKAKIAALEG

[16] = target: T16, 4H3162-AA; assay: two-hybrid library CCmax; settings: mean of both orientations
T16 chain: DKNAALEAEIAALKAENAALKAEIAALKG

[17] = target: T17, 4H32-AA; assay: two-hybrid library CCmax; settings: mean of both orientations
T17 chain: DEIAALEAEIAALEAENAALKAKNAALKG

[18] = target: T18, 4H3378-AA; assay: two-hybrid library CCmax; settings: mean of both orientations
T18 chain: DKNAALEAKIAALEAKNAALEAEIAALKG

[19] = target: T19, 4H340-AA; assay: two-hybrid library CCmax; settings: mean of both orientations
T19 chain: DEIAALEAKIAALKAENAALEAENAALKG

[20] = target: T20, 4H3413-AA; assay: two-hybrid library CCmax; settings: mean of both orientations
T20 chain: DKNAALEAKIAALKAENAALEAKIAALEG

[21] = target: T21, 4H3588-AA; assay: two-hybrid library CCmax; settings: mean of both orientations
T21 chain: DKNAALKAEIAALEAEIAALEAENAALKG

[22] = target: T22, 4H3606-AA; assay: two-hybrid library CCmax; settings: mean of both orientations
T22 chain: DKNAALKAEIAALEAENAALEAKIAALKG

[23] = target: T23, 4H3631-AA; assay: two-hybrid library CCmax; settings: mean of both orientations
T23 chain: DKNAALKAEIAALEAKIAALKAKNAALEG

[24] = target: T24, 4H3697-AA; assay: two-hybrid library CCmax
T24 chain: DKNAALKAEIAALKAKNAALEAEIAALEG

[25] = target: T25, 4H3718-AA; assay: two-hybrid library CCmax; settings: mean of both orientations
T25 chain: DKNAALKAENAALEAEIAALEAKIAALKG

[26] = target: T26, 4H384-AA; assay: two-hybrid library CCmax; settings: mean of both orientations
T26 chain: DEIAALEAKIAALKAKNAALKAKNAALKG

[27] = target: T27, 4H3865-AA; assay: two-hybrid library CCmax; settings: mean of both orientations
T27 chain: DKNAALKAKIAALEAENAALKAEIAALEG

[28] = target: T28, 4H697-AA; assay: two-hybrid library CCmax; settings: mean of both orientations
T28 chain: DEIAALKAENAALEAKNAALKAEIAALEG

[29] = target: T29, 4H982-AA; assay: two-hybrid library CCmax; settings: mean of both orientations
T29 chain: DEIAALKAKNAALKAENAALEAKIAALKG

interaction score [1]: -0.959
B1: O9-bA (peptide)
chain: DENAQLEQKNAELKQEIAELEWEIAQLEQ

interaction score [2]: -1.34
interaction score [3]: -0.874
interaction score [4]: -1.67
interaction score [5]: 1.77
interaction score [6]: -0.251
interaction score [7]: -1.31
interaction score [8]: 0.557
interaction score [9]: -1.29
interaction score [10]: -1.77
B2: 4H3605-AA (peptide)
chain: DKNAALKAEIAALEAENAALEAKIAALEG

interaction score [11]: 0.586
interaction score [12]: 1.77
interaction score [13]: 1.23
interaction score [14]: -1.79
interaction score [15]: -1.58
interaction score [16]: -1.82
interaction score [17]: 1.05
interaction score [18]: -1.66
interaction score [19]: 2.42
interaction score [20]: -0.901
interaction score [21]: 0.147
interaction score [22]: -0.861
interaction score [23]: -0.556
interaction score [24]: -1.64
interaction score [25]: -0.835
interaction score [26]: 0.949
interaction score [27]: -1.61
interaction score [28]: -1.54
interaction score [29]: -0.887
B3: 4H2620-AA (peptide)
chain: DKIAALKAEIAALEAKNAALKAENAALKG
